Test results published in patent publication US20240376168A1 (LETO LABORATORIES, published 2024).
Where a chain is given by its changes, count along the chain named. Names and notes keep the numbering of the source. Blank lines part the entries; values can stand above or below the binder they belong to.

Assays:
[1] = molecular target: β-Klotho overexpressed on HEK293 cells; assay: cell-based or functional assay
[2] = molecular target: T1, extracellular domain of human receptor β-Klotho with a C-terminal Poly-His tag (human, UniProt Q86Z14 1-996); assay: SPR, Biacore-8K; His-tagged β-Klotho ECD on NTA chip, FGF21 mutant as analyte, kinetic fit
T1 construct: extracellular domain; Immobilised on an NTA chip at 1,000 RU; also called human β-Klotho protein; KLB; not shown: Poly-His tag at the C-terminus
T1 sequence (looked up): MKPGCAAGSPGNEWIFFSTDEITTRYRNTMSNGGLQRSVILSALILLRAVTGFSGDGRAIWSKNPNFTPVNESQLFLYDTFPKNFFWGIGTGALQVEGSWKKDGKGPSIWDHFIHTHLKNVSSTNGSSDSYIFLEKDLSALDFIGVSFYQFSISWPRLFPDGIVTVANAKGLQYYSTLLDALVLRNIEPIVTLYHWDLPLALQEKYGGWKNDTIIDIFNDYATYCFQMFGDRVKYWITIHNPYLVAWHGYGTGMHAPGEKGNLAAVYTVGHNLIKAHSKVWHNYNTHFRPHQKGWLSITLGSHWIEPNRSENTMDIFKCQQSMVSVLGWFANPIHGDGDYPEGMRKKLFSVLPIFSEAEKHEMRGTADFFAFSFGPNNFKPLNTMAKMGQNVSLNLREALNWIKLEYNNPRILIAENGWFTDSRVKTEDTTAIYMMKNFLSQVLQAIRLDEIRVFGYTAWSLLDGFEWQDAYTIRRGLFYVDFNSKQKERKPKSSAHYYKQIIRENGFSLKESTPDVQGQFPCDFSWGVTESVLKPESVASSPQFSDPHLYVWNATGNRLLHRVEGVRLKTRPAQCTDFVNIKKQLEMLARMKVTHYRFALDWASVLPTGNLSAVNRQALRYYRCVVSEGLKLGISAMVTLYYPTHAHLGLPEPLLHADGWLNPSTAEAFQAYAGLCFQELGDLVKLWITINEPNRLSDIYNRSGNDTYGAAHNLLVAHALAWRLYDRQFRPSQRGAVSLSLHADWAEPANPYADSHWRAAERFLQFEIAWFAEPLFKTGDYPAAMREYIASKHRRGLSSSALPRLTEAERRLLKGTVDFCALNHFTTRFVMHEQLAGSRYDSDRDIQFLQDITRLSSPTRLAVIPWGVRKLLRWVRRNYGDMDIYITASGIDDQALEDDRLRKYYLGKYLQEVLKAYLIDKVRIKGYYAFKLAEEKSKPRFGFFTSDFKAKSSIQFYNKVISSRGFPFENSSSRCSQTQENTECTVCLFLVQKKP
Description: An extracellular domain of a human receptor β-Klotho (a Poly-His tag was fused at a C-terminus) was expressed and purified in the present disclosure, and a sequence of the protein was acquired from the Uniprot database. An affinity assay was conducted with Biacore-8K. Specifically, a human β-Klotho protein was immobilized on an NTA chip at a fixed amount of 1,000 RU with PBS (including 0.05% Tween-20) as a flow buffer. An FGF21 mutant was allowed to flow through the chip at different concentrations to determine the binding of the FGF21 mutant to β-Klotho. Final data were fitted using kinetics, and a dissociation constant KD was calculated.

Activity in β-Klotho-ERK cells (EC50) [1]: 1.48 nM | Kd [2]: 67.5 nM
B1: FGF21 (Del-P171) mutant 1408 (ligand)
chain: HPIPDSSPLLQFGGQVRQRYLYTDDAQQTEAHLEIREDGTVGGAADQSPESLLQLKALKPGVIQILGVKTSRFLCQRPDGALYGSLHFDPEACSFRELLLEDGYNVYQSEAHGLPLHLPGQKSPHRDPAPRGPARFLPLPGLPPALPEPPGILAPQPPDVGSSDPLSLVGSQGRSPSYAS

Activity in β-Klotho-ERK cells (EC50) [1]: 2.09 nM | Kd [2]: 64.6 nM
B3: FGF21 (170C/Ins-172S/173C) mutant 1413 (ligand)
chain: HPIPDSSPLLQFGGQVRQRYLYTDDAQQTEAHLEIREDGTVGGAADQSPESLLQLKALKPGVIQILGVKTSRFLCQRPDGALYGSLHFDPEACSFRELLLEDGYNVYQSEAHGLPLHLPGQKSPHRDPAPRGPARFLPLPGLPPALPEPPGILAPQPPDVGSSDPLSLVCPSCQGRSPSYAS
modifications: disulfide bond introduced between 170C and 173C
notes: A small number of incorrect dimers is reported

Activity in β-Klotho-ERK cells (EC50) [1]: 1.15 nM | Kd [2]: 42.5 nM
B7: FGF21 (P171G) mutant 1407 (ligand)
chain: HPIPDSSPLLQFGGQVRQRYLYTDDAQQTEAHLEIREDGTVGGAADQSPESLLQLKALKPGVIQILGVKTSRFLCQRPDGALYGSLHFDPEACSFRELLLEDGYNVYQSEAHGLPLHLPGQKSPHRDPAPRGPARFLPLPGLPPALPEPPGILAPQPPDVGSSDPLSLVGGSQGRSPSYAS
notes: also called FGF21 mutant P171G

Second part, the binder before the results:

B2: FGF21 (170C/Ins-172G/173C) mutant 1409 (ligand)
chain: B3 chain with S172G
modifications: intramolecular disulfide bond between C170 and C173
Activity in β-Klotho-ERK cells (EC50) [1]: 2.14 nM | Kd [2]: 59.4 nM

B4: FGF21 (170C/Ins-172A/173C) mutant 1412 (ligand)
chain: B3 chain with S172A
modifications: disulfide bond introduced between 170C and 173C
notes: as for B3
Activity in β-Klotho-ERK cells (EC50) [1]: 2.52 nM | Kd [2]: 69.9 nM

B5: FGF21 (121Q, 168L) mutant 1414 (ligand)
chain: B7 chain with G171P
notes: Control that stands for wild-type FGF21; An alanine is added before His1 of mature FGF21; also called FGF21 control mutant 1414
Activity in β-Klotho-ERK cells (EC50) [1]: 0.85 nM | Kd [2]: 51.2 nM

B6: FGF21 (170C/173C) mutant 1411 (ligand)
chain: B7 chain with G170C, G171P, Q173C
modifications: disulfide bond introduced between 170C and 173C
notes: Only a trace amount of incorrect dimers is reported
Activity in β-Klotho-ERK cells (EC50) [1]: 0.999 nM | Kd [2]: 69.4 nM
